Source: PMC3638996 (Structure (London, England : 1993), 2013)

B1: Full-length RGS2, fluorescently labeled with Alexa Fluor-488 (natural protein, human, UniProt P41220 1-211, looked up)
chain: MQSAMFLAVQHDCRPMDKSAGSGHKSEEKREKMKRTLLKDWKTRLSYFLQNSSTPGKPKTGKKSKQQAFIKPSPEEAQLWSEAFDELLASKYGLAAFRAFLKSEFCEENIEFWLACEDFKKTKSPQKLSSKARKIYTDFIEKEAPKEINIDFQTKTLIAQNIQEATSGCFTTAQKRVYSLMENNSYPRFLESEFYQDLCKKPQITTEPHAT
modifications: labeled with Alexa Fluor-488 carboxylic acid, 2,3,5,6-tetrafluorophenyl ester, 5-isomer
B2: RGS2 RH domain (residues 72-203), wild type (domain or fragment, human)
chain: GEFGSPSPEEAQLWSEAFDELLASKYGLAAFRAFLKSEFCEENIEFWLACEDFKKTKSPQKLSSKARKIYTDFIEKEAPKEINIDFQTKTLIAQNIQEATSGCFTTAQKRVYSLMENNSYPRFLESEFYQDLCKKPQ
B3: RGS2 RH domain (residues 72-203) S179D (domain or fragment, human)
chain: GEFGSPSPEEAQLWSEAFDELLASKYGLAAFRAFLKSEFCEENIEFWLACEDFKKTKSPQKLSSKARKIYTDFIEKEAPKEINIDFQTKTLIAQNIQEATSGCFTTAQKRVYDLMENNSYPRFLESEFYQDLCKKPQ
B4: RGS2 RH domain (residues 72-203) E182A (domain or fragment, human)
chain: GEFGSPSPEEAQLWSEAFDELLASKYGLAAFRAFLKSEFCEENIEFWLACEDFKKTKSPQKLSSKARKIYTDFIEKEAPKEINIDFQTKTLIAQNIQEATSGCFTTAQKRVYSLMANNSYPRFLESEFYQDLCKKPQ
B5: RGS2 RH domain (residues 72-203) S179M (domain or fragment, human)
chain: GEFGSPSPEEAQLWSEAFDELLASKYGLAAFRAFLKSEFCEENIEFWLACEDFKKTKSPQKLSSKARKIYTDFIEKEAPKEINIDFQTKTLIAQNIQEATSGCFTTAQKRVYMLMENNSYPRFLESEFYQDLCKKPQ
B6: RGS2 RH domain (residues 72-203) N183A (domain or fragment, human)
chain: GEFGSPSPEEAQLWSEAFDELLASKYGLAAFRAFLKSEFCEENIEFWLACEDFKKTKSPQKLSSKARKIYTDFIEKEAPKEINIDFQTKTLIAQNIQEATSGCFTTAQKRVYSLMEANSYPRFLESEFYQDLCKKPQ
B7: RGS2 RH domain (residues 72-203) N183K (domain or fragment, human)
chain: GEFGSPSPEEAQLWSEAFDELLASKYGLAAFRAFLKSEFCEENIEFWLACEDFKKTKSPQKLSSKARKIYTDFIEKEAPKEINIDFQTKTLIAQNIQEATSGCFTTAQKRVYSLMEKNSYPRFLESEFYQDLCKKPQ
B8: RGS2 RH domain (residues 72-203) S179N (domain or fragment, human)
chain: GEFGSPSPEEAQLWSEAFDELLASKYGLAAFRAFLKSEFCEENIEFWLACEDFKKTKSPQKLSSKARKIYTDFIEKEAPKEINIDFQTKTLIAQNIQEATSGCFTTAQKRVYNLMENNSYPRFLESEFYQDLCKKPQ
B9: RGS2 RH domain (residues 72-203) S179K (domain or fragment, human)
chain: GEFGSPSPEEAQLWSEAFDELLASKYGLAAFRAFLKSEFCEENIEFWLACEDFKKTKSPQKLSSKARKIYTDFIEKEAPKEINIDFQTKTLIAQNIQEATSGCFTTAQKRVYKLMENNSYPRFLESEFYQDLCKKPQ
B10: RGS2 RH domain (residues 72-203) N183F (domain or fragment, human)
chain: GEFGSPSPEEAQLWSEAFDELLASKYGLAAFRAFLKSEFCEENIEFWLACEDFKKTKSPQKLSSKARKIYTDFIEKEAPKEINIDFQTKTLIAQNIQEATSGCFTTAQKRVYSLMEFNSYPRFLESEFYQDLCKKPQ
B11: RGS2 RH domain (residues 72-203) K175A (domain or fragment, human)
chain: GEFGSPSPEEAQLWSEAFDELLASKYGLAAFRAFLKSEFCEENIEFWLACEDFKKTKSPQKLSSKARKIYTDFIEKEAPKEINIDFQTKTLIAQNIQEATSGCFTTAQARVYSLMENNSYPRFLESEFYQDLCKKPQ

The binders below were run against Gαi/q-R183C chimera (Gαq R183C with the N-terminal helix of Gαi), biotinylated (not stated | mouse) (assay: bead-based flow cytometry binding assay).

B1 showed a Kd of 22 nM.

What follows are binders tested against T1, Murine Gαq (amino acids 7-359), biotinylated (mouse, UniProt P21279 7-359, biotinylated with biotinamidohexanoic acid N-hydroxysuccinimide) (assay: bead-based flow cytometry binding assay).
T1 sequence (looked up): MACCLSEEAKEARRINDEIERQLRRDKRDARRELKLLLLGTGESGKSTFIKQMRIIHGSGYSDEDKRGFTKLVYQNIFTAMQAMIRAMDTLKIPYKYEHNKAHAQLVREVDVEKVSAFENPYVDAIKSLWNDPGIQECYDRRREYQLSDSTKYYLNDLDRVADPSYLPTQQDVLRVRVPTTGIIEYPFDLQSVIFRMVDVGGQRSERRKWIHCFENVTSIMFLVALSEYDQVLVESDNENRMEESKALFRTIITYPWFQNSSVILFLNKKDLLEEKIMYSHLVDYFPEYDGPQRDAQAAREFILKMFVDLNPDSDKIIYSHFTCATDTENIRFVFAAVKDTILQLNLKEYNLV

Binder B1 has a Kd of 3.3 nM.

The binders below were run against T1, Murine Gαq (amino acids 7-359), … (assay: bead-based flow cytometry competition assay).

Point of comparison: B11, IC50 560 nM. Against it:
- B2 — 2.1-fold lower, 270 nM
- B3 — 29-fold higher, 16000 nM
- B4 — 1.9-fold lower, 300 nM
- B5 — 4.3-fold lower, 130 nM
- B6 — 2.7-fold higher, 1500 nM
- B7 — 13-fold higher, 7100 nM
- B8 — within 1.5-fold, 690 nM
- B9 — 6.1-fold higher, 3400 nM
- B10 — 3.3-fold lower, 170 nM
